Measurements taken from publication PMC4046795.

Molecular target: recombinant human EGFR/ErbB1 Fc chimera (rhEGFR) (human, UniProt P00533 25-645)
Assay: SPR

B1: E07 anti-EGFR aptamer (structured_RNA)
RNA: GGCGCUCCGACCUUAGUCUCUGUGCCGCUAUAAUGCACGGAUUUAAUCGCCGUAGAAAAGCAUGUCAAAGCCGGAACCGUGUAGCACAGCAGAGAAUUAAAUGCCCGCCAUGACCAG
modifications: 2'-fluoropyrimidine
For B1, which Kd is on record?
Its Kd is 112 nM.
